# IntAct's records for PubMed 15147268
# B1: Suppressor of kinetochore protein 1 (Schizosaccharomyces pombe (strain ATCC 38366 / 972)), Q9Y709 (parent)
# chain: MSKIKLISSDNEEFVVDQLIAERSMLIKNMLEDVGEINVPIPLPNVSSNVLRKVLEWCEHHKNDLYSGTEEESDIRLKKSTDIDEWDRKFMAVDQEMLFEIVLASNYLDIKPLLDTGCKTVANMIRGKSPEDIRKTFNIPNDFTPEEEEQIRKENEWAEDR
# partner: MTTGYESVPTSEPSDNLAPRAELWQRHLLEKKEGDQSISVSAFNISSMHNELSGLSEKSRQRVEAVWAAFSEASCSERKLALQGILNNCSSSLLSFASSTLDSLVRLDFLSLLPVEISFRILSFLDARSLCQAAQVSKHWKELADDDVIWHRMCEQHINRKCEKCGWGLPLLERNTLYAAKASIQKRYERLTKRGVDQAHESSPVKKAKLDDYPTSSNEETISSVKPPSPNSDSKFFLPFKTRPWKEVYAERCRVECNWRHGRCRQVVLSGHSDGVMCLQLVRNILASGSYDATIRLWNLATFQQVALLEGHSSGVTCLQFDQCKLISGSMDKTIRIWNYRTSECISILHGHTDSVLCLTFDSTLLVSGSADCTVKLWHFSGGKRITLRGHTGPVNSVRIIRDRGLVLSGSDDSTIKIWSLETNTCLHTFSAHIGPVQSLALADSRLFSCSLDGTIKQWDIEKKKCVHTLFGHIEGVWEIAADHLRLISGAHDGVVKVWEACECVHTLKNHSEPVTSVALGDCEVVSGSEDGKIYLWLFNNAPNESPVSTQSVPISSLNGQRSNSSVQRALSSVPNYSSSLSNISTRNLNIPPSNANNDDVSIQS
# B2: Suppressor of kinetochore protein 1 (Schizosaccharomyces pombe (strain ATCC 38366 / 972)), Q9Y709 (parent)
# chain: B1 chain
# partner: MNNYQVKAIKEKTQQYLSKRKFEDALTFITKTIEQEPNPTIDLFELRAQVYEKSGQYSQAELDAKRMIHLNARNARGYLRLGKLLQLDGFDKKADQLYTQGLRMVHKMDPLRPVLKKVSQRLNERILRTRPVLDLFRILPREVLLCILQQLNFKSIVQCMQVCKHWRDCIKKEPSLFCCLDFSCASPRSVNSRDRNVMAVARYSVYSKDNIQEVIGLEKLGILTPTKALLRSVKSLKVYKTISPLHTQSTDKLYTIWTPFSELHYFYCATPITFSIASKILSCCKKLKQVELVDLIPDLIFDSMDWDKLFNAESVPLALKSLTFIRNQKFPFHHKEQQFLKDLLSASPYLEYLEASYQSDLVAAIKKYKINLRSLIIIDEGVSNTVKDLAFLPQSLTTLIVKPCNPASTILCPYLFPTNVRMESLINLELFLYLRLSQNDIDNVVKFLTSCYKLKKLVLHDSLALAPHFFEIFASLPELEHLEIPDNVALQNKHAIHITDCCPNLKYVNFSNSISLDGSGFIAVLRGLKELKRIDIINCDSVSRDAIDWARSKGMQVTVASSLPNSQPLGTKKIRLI
# B3: Suppressor of kinetochore protein 1 (Schizosaccharomyces pombe (strain ATCC 38366 / 972)), Q9Y709 (parent)
# chain: B1 chain
# partner: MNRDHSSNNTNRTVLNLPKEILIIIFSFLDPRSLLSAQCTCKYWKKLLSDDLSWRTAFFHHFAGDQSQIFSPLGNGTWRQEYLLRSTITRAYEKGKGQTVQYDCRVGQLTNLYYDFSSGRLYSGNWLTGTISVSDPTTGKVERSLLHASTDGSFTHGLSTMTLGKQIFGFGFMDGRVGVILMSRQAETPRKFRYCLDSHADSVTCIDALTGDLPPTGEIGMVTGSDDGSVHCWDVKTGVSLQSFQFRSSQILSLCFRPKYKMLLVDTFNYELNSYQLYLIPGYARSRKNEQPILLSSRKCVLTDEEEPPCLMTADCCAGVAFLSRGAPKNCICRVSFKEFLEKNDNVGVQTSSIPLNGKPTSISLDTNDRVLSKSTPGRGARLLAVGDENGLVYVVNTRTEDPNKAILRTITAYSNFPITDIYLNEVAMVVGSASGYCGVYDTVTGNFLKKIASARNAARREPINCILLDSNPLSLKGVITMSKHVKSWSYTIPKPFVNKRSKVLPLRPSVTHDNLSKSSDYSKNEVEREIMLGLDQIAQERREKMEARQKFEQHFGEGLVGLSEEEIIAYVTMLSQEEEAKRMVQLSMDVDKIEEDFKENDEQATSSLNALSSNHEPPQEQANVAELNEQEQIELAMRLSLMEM
# Variants of: B1
# Details: with pof1_schpo pof1, P87053
row,Variant,effect of a mutation on the interaction
1,I110T,decreasing interaction

# Variants of: B2
# Details: with pof3_schpo pof3, O74991
row,Variant,effect of a mutation on the interaction
1,I110T,decreasing interaction

# Variants of: B3
# Details: with pof10_schpo pof10, Q9P7W4
row,Variant,effect of a mutation on the interaction
1,I110T,decreasing interaction
